Experimental findings from paper PMC6370916 are described below.

Numbering of substitutions follows the chain as printed. Numbers in names are those of the source.

In this test the target is T1, recombinant human SEMA3C Fc chimera, Q99985.
T1 chain: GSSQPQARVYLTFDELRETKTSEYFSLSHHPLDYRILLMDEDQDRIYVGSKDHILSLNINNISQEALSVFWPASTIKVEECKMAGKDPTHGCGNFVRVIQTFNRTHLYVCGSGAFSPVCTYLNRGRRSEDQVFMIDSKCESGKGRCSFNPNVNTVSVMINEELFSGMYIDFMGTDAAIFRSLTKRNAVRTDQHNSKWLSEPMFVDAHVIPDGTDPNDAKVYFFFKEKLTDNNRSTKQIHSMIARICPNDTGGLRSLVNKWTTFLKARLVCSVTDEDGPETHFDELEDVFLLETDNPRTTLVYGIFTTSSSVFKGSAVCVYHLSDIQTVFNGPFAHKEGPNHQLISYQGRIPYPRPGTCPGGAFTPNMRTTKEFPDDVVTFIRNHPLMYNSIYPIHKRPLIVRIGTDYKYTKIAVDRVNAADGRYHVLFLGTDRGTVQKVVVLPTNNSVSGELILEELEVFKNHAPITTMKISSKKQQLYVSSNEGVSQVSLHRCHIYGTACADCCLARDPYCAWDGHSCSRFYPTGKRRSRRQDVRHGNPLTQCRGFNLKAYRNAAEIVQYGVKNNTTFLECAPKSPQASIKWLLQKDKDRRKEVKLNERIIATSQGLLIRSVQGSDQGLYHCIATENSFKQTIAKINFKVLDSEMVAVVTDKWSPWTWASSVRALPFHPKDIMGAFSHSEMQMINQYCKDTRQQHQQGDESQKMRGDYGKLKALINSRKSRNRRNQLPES
Briefly: Saturation receptor-ligand binding assay. Conditions: chain shown with the change, SEMA3C 0-10 nM, read-out O.D. 450 nm.

[1] abbreviates: NRP2 co-expressed with WT PLXNA1, parent: 0.63 nM.
Setting [2] is: NRP2 co-expressed with WT PLXNA1, parent: 0.65.
Setting [3] is: NRP2 co-expressed with WT PLXNA2, parent: 0.89 nM.
[4] abbreviates: NRP2 co-expressed with WT PLXNA2, parent: 0.60.
Where [5] appears, read: NRP2 co-expressed with WT PLXNA3, parent: 0.93 nM.
Where [6] appears, read: NRP2 co-expressed with WT PLXNA3, parent: 0.54.
[7] abbreviates: NRP2 co-expressed with WT PLXNA4, parent: 1.03 nM.
Setting [8] is: NRP2 co-expressed with WT PLXNA4, parent: 0.65.
[9] abbreviates: cells expressing NRP2 alone (no PLXNA co-expressed), parent: 0.81 nM.
Setting [10] is: cells expressing NRP2 alone (no PLXNA co-expressed), parent: 0.89.

B1: human Neuropilin 2, wild type, O60462 A506V (protein)
chain: RGQPDPPCGGRLNSKDAGYITSPGYPQDYPSHQNCEWIVYAPEPNQKIVLNFNPHFEIEKHDCKYDFIEIRDGDSESADLLGKHCGNIAPPTIISSGSMLYIKFTSDYARQGAGFSLRYEIFKTGSEDCSKNFTSPNGTIESPGFPEKYPHNLDCTFTILAKPKMEIILQFLIFDLEHDPLQVGEGDCKYDWLDIWDGIPHVGPLIGKYCGTKTPSELRSSTGILSLTFHTDMAVAKDGFSARYYLVHQEPLENFQCNVPLGMESGRIANEQISASSTYSDGRWTPQQSRLHGDDNGWTPNLDSNKEYLQVDLRFLTMLTAIATQGAISRETQNGYYVKSYKLEVSTNGEDWMVYRHGKNHKVFQANNDATEVVLNKLHAPLLTRFVRIRPQTWHSGIALRLELFGCRVTDAPCSNMLGMLSGLIADSQISASSTQEYLWSPSAARLVSSRSGWFPRIPQAQPGEEWLQVDLGTPKTVKGVIIQGVRGGDSITAVEARAFVRKFKVSYSLNGKDWEYIQDPRTQQPKLFEGNMHYDTPDIRRFDPIPAQYVRVYPERWSPAGIGMRLEVLGCDWTDSKPTVETLGPTVKSEETTTPYPTEEEATECGENCSFEDDKDLQLPSGFNCNFDFLEEPCGWMYDHAKWLRTTWASSSSPNDRTFPDDRNFLRLQSDSQREGQYARLISPPVHLPRSPVCMEFQYQATGGRGVALQVVREASQESKLLWVIREDQGGEWKHGRIILPSYDMEYQIVFEGVIGKGRSGEIAIDDIRISTDVPLENCMEPISAFAGENFKVDIPEIHEREGYEDEIDDEYEVDWSNSSSATSGSGAPSTDKEKSWLYTLDPILITIIAMSSLGVLLGATCAGLLLYCTCSYSGLSSRSCTTLENYNFELYDGLKHKVKMNHQKCCSEA
As to B1, the Kd amounted to 0.67 nM under setting [1]; 1 nM under setting [3]; 1.12 nM under setting [5]; 1.25 nM under setting [7]; 0.73 nM under setting [9]. In addition, the other: Bmax by setting is: under setting [2], 0.55 O.D. 450 nm; under setting [4], 0.52 O.D. 450 nm; under setting [6], 0.42 O.D. 450 nm; under setting [8], 0.55 O.D. 450 nm; under setting [10], 0.84 O.D. 450 nm.

B2: human Neuropilin 2, wild type, O60462 V573L (protein)
chain: B1 chain with V486A, V553L
As to B2, the Kd runs as follows: under setting [1], 0.68 nM; under setting [3], 1.01 nM; under setting [5], 1.18 nM; under setting [7], 1.07 nM; under setting [9], 0.83 nM. Also, the other: Bmax is, setting by setting: under setting [2], 0.66 O.D. 450 nm; under setting [4], 0.67 O.D. 450 nm; under setting [6], 0.52 O.D. 450 nm; under setting [8], 0.59 O.D. 450 nm; under setting [10], 0.93 O.D. 450 nm.
